In US20250289871A1 (AstraZeneca / MedImmune, published 2025) one finds Kd data, which are given here for three molecules.

A value given as a limit tells only on which side of the number the result lay.

The assay deals with SARS-CoV-2 spike RBD (residues 334-526), AviTag and 8×HisTag (SARS-CoV-2, UniProt P0DTC2 334-526).

B1: RQ40 (TM-YTE) (antibody, V domains shown)
VH: EVQLVESGAEVKKPGSSVKVSCKASGGTFSSYAINWVRQAPGQGLEWMGGIIPIFRTPHYAQKFQGRVTITADESTGTAYMELSSLRSEDTAVYYCASPSCGGDCPQYLKSSKLDWYFDLWGRGTLVTVSS
VL: VIWMTQSPGTLSLSPGERATLSCRASQSVSSTYLAWYQQKPGQAPRLLIYGASSRATGIPDRFSGSGSGTDFTLTISRLEPEDFAVYYCQHYGSSPLTFGQGTRLEIK
Broadly, the Kd is the free concentration of one partner at which half of the binding sites on the other are occupied at equilibrium, for simple one-to-one binding. High values mean a looser complex, low ones a tighter complex. In turn, B1 registered an equilibrium dissociation constant (Kd) below 0.001 nM.

B2: RQ43 (TM-YTE) (antibody, V domains shown)
VH: EVQLLETGGGLVQPGRSLRLSCAASGFPFDDYAIHWVRLAPGKGLEWVSSISWDSGSIGYADSVKGRFTISRDNAKNSLYLQMNSLRAEDTALYYCAKGAFPGYSSGWYYGLDVWGQGATVTVSS
VL: QSVVTQPPSASGSLGQSVTISCTGTSSDVGGYNYVSWYQQHPGKAPKLMIFEVSKRPSGVPDRFSGSKSGNTASLTVSGLQAEDEADYYCSSYAGNKGVFGGGTKLTVL
The molecule B2 showed a Kd below 0.001 nM.

B3: RQ33 (TM-YTE) (antibody, V domains shown)
VH: QVQLQESGPGLVKPSETLSLTCTVFGGSITSSNHYWVWIRQPPGKGLEWIGSMYYSGSTAYNPSLTNRVTISVDTSKNQFSLKLSSVTAADTAVYYCARQIGPKRPSQVADWFDPWGQGTLVTVSS
VL: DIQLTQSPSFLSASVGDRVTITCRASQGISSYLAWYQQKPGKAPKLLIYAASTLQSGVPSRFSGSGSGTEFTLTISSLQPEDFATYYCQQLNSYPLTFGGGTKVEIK
Turning to B3, the Kd is 3.65 nM.
